Data: paper PMC5499577 (Nucleic Acids Research, 2017)
Where two headings read alike, the source gives them in different places.

Assays:
crystal structure = molecular target: the molecule itself; assay: crystal structure
AUC [1] = molecular target: the molecule itself; assay: AUC
AUC [2] = molecular target: the molecule itself; assay: AUC; remark: listed apart in the source

Protein | binding result (crystal structure) | Kd (AUC [1]) [µM] | stoichiometry N (AUC [1]) | Kd (AUC [2]) [µM] | stoichiometry N (AUC [2])
SLNEKLKIEHAKKKRLFDLYINGSYEVSELDSMMNDIDAQINYYEAQIEA (domain or fragment, Listeria innocua (prophage), UniProt Q928V6 350-399, looked up) [LI Int isolated coiled-coil domain CC-II (350-399)] | binds | – | – | – | –
LI Int CTD Y369A (133-452) (domain or fragment, Listeria innocua (prophage), UniProt Q928V6 133-452, looked up) RDRMVMGKIKRIEAGLPLTTAKGRTFGYDVIDTKLYINEEEAKQLRLIYDIFEEEQSITFLQKRLKKLGFKVRTYNRYNNWLTNDLYCGYVSYKDKVHVKGIHEPIISEEQFYRVQEIFSRMGKNPNMNKESASLLNNLVVCSKCGLGFVHRRKDTVSRGKKYHYRYYSCKTYKHTHELEKCGNKIWRADKLEELIIDRVNNYSFASRNIDKEDELDSLNEKLKIEHAKKKRLFDLAINGSYEVSELDSMMNDIDAQINYYEAQIEANEELKKNKKIQENLADLATVDFNSLEFREKQLYLKSLINKIYIDGEQVTIEWL | – | 289 | 2 | – | –
LI Int CTD K362A (133-452) (domain or fragment, Listeria innocua (prophage), UniProt Q928V6 133-452, looked up) RDRMVMGKIKRIEAGLPLTTAKGRTFGYDVIDTKLYINEEEAKQLRLIYDIFEEEQSITFLQKRLKKLGFKVRTYNRYNNWLTNDLYCGYVSYKDKVHVKGIHEPIISEEQFYRVQEIFSRMGKNPNMNKESASLLNNLVVCSKCGLGFVHRRKDTVSRGKKYHYRYYSCKTYKHTHELEKCGNKIWRADKLEELIIDRVNNYSFASRNIDKEDELDSLNEKLKIEHAKAKRLFDLYINGSYEVSELDSMMNDIDAQINYYEAQIEANEELKKNKKIQENLADLATVDFNSLEFREKQLYLKSLINKIYIDGEQVTIEWL | – | 45.2 | 2 | – | –
LI Int carboxy-terminal domain, CTD (133-452) (domain or fragment, Listeria innocua (prophage), UniProt Q928V6 133-452, looked up) RDRMVMGKIKRIEAGLPLTTAKGRTFGYDVIDTKLYINEEEAKQLRLIYDIFEEEQSITFLQKRLKKLGFKVRTYNRYNNWLTNDLYCGYVSYKDKVHVKGIHEPIISEEQFYRVQEIFSRMGKNPNMNKESASLLNNLVVCSKCGLGFVHRRKDTVSRGKKYHYRYYSCKTYKHTHELEKCGNKIWRADKLEELIIDRVNNYSFASRNIDKEDELDSLNEKLKIEHAKKKRLFDLYINGSYEVSELDSMMNDIDAQINYYEAQIEANEELKKNKKIQENLADLATVDFNSLEFREKQLYLKSLINKIYIDGEQVTIEWL | – | 18.8 | 2 | – | –
Listeria innocua integrase (LI Int), wild type, full length (enzyme, Listeria innocua (prophage), UniProt Q928V6 1-452, looked up) MKAAIYIRVSTQEQVENYSIQAQTEKLTALCRSKDWDVYDTFIDGGYSGSNMNRPALNEMLSKLHEIDAVVVYRLDRLSRSQKDTITLIEEYFLKNNVEFVSLSETLDTSSPFGRAMIGILSVFAQLERETIRDRMVMGKIKRIEAGLPLTTAKGRTFGYDVIDTKLYINEEEAKQLRLIYDIFEEEQSITFLQKRLKKLGFKVRTYNRYNNWLTNDLYCGYVSYKDKVHVKGIHEPIISEEQFYRVQEIFSRMGKNPNMNKESASLLNNLVVCSKCGLGFVHRRKDTVSRGKKYHYRYYSCKTYKHTHELEKCGNKIWRADKLEELIIDRVNNYSFASRNIDKEDELDSLNEKLKIEHAKKKRLFDLYINGSYEVSELDSMMNDIDAQINYYEAQIEANEELKKNKKIQENLADLATVDFNSLEFREKQLYLKSLINKIYIDGEQVTIEWL | – | ≤ 0.032 | 2 | – | –
LI Int isolated coiled-coil domain CC-III (349-400) (domain or fragment, Listeria innocua (prophage), UniProt Q928V6 349-400, looked up) DSLNEKLKIEHAKKKRLFDLYINGSYEVSELDSMMNDIDAQINYYEAQIEAN | binds | – | – | – | –
LI Int with the coiled-coil motif deleted, IntΔCC (Δ342-416) (enzyme, Listeria innocua (prophage), UniProt Q928V6 1-452, looked up) MKAAIYIRVSTQEQVENYSIQAQTEKLTALCRSKDWDVYDTFIDGGYSGSNMNRPALNEMLSKLHEIDAVVVYRLDRLSRSQKDTITLIEEYFLKNNVEFVSLSETLDTSSPFGRAMIGILSVFAQLERETIRDRMVMGKIKRIEAGLPLTTAKGRTFGYDVIDTKLYINEEEAKQLRLIYDIFEEEQSITFLQKRLKKLGFKVRTYNRYNNWLTNDLYCGYVSYKDKVHVKGIHEPIISEEQFYRVQEIFSRMGKNPNMNKESASLLNNLVVCSKCGLGFVHRRKDTVSRGKKYHYRYYSCKTYKHTHELEKCGNKIWRADKLEELIIDRVNNYSFASRNATVDFNSLEFREKQLYLKSLINKIYIDGEQVTIEWL | – | 5.7 | 2 | – | –
His6Flag-Smt3-CC-I fusion of the LI Int coiled-coil domain (345-405) (domain or fragment, Listeria innocua (prophage), UniProt Q928V6 345-405, looked up) EDELDSLNEKLKIEHAKKKRLFDLYINGSYEVSELDSMMNDIDAQINYYEAQIEANEELKK | – | – | – | 20.1 | 2
